# Measurements published in patent publication US20090215992A1 (published 2009).
# B1: mIL-1α/β DVD-Ig (bispecific antibody, mouse IgG2a, kappa)
# heavy: EVQLQQSGPELVKPGTSVKMSCKTSGYTFTSYVMHWVKQKPGQGLEWIGYIIPYNDNTKYNEKFKGKATLTSDKSSSTAYMELSSLTSEDSAVYYCARRNEYYGSSFFDYWGQGTTLTVSSAKTTAPSVYPLAPQVILKESGPGILQPSQTLSLTCSFSGFSLSTYGTAVNWIRQPSGKGLEWLAQIGSDDRKLYNPFLKSRITLSEDTSNSQVFLKITSVDTEDSATYYCANGVMEYWGLGTSVTVSSAKTTAPSVYPLAPVCGDTTGSSVTLGCLVKGYFPEPVTLTWNSGSLSSGVHTFPAVLQSDLYTLSSSVTVTSSTWPSQSITCNVAHPASSTKVDKKIEPRGPTIKPCPPCKCPAPNLLGGPSVFIFPPKIKDVLMISLSPIVTCVVVDVSEDDPDVQISWFVNNVEVHTAQTQTHREDYNSTLRVVSALPIQHQDWMSGKEFKCKVNNKDLPAPIERTISKPKGSVRAPQVYVLPPPEEEMTKKQVTLTCMVTDFMPEDIYVEWTNNGKTELNYKNTEPVLDSDGSYFMYSKLRVEKKNWVERNSYSCSVVHEGLHNHHTTKSFSRTPGK
# light: DIQMTQSPASLSASVGETVTITCRGSGILHNYLVWYQQKQGKSPQLLVYSAKILADGVPSRFSGSGSGTQYSLKINSLQPEDFGSYYCQHFWSTPFTFGSGTKLEIKRADAAPTVSIFPPSIVMTQTPKFLLVSAGDRVTITCKASQSVNHDVAWYQQMPGQSPKLLIYFASNRYTGVPDRFTGSGYGTDFTFTISTVQAEDLAVYFCQQDYSSPYTFGGGTKLEIKRADAAPTVSIFPPSSEQLTSGGASVVCFLNNFYPKDINVKWKIDGSERQNGVLNSWTDQDSKDSTYSMSSTLTLTKDEYERHNSYTCEATHKTSTSPIVKSFNRNEC
# Target: T1, mouse IL-1α (mouse, UniProt P01582 115-270)
# T1 sequence (looked up): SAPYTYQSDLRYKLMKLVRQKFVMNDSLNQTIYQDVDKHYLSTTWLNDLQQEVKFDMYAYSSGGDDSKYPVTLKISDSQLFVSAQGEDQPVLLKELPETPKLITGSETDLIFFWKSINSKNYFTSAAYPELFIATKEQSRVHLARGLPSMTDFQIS
# Test: cell-based or functional assay
binder,measurement,value
B1,fold decrease of potency against the parental anti-mIL-1α mAb,10 fold
